Measured values: PMC8642242

Target: SARS-CoV-1 (Sino 1-11) RBD, His-tagged (SARS-CoV-1)

## WRAIR-2063 (human IgG1) (antibody)
  IC50 of neutralization of SARS-CoV-1 (Sino 1-11) pseudovirus: 0.095 µg/mL
